Residue numbers refer to the chain shown, from its start. In names and notes the source's numbering stands. Where two headings read alike, the source gives them in different places.

In test [1] the target is T1, ICAM-3 coated on fluorescent beads (UniProt P32942 30-485).
T1 sequence: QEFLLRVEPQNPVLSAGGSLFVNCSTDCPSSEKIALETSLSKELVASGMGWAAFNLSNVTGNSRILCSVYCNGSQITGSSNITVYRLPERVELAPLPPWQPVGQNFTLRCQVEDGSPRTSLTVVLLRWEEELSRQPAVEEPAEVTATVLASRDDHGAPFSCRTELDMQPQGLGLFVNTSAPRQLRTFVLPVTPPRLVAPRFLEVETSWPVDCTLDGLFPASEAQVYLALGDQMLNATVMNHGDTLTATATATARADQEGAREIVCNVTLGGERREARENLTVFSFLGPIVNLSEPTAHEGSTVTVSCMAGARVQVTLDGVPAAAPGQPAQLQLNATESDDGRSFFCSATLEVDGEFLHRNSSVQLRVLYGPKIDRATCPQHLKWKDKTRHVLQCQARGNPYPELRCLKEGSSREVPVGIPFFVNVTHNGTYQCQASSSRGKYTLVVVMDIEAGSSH

A further test concerns the target T2, ICAM-3-Fc (UniProt P32942 30-485).
T2 construct: also called pIG-ICAM-3-Fc product; Fc chimera of ICAM-3
T2 sequence (looked up): T1 sequence
The test can be described thus: beads coated with ICAM-3-Fc, immature DC and K562-DC-SIGN.

In test [2] the target is T1, ICAM-3 coated on fluorescent beads. Kind of test: fluorescent bead adhesion assay, K562 transfectants.
In another test the target is T3, ICAM-3 from granulocytes (UniProt P32942 30-547).
T3 construct: also called ICAM-3 captured or immunoprecipitated from granulocyte lysate
T3 sequence (looked up): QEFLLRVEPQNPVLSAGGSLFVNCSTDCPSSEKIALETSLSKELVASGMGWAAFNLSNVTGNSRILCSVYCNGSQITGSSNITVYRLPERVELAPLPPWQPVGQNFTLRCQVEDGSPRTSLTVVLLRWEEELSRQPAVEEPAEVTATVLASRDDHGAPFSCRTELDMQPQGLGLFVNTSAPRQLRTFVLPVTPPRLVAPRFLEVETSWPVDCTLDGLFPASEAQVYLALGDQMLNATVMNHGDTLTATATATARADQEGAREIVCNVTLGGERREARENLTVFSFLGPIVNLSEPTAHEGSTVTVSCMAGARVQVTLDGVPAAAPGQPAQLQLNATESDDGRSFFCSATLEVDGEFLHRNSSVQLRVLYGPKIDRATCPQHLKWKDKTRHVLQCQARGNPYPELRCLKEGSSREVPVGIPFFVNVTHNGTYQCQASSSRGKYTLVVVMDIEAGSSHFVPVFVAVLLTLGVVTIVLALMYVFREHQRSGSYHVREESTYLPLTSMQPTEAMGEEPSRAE
Kind of test: ELISA: ICAM-3 captured from granulocyte lysate by coated antibody, DC-SIGN-Fc added (FIG. 22C). Background: In an ELISA, binding on a coated surface is turned into a signal by an enzyme label.

B1: DC-SIGN (CD209), wild type, expressed on K562 transfectants or immature dendritic cells (receptor, human, UniProt Q9NNX6 1-404, looked up)
chain: MSDSKEPRLQQLGLLEEEQLRGLGFRQTRGYKSLAGCLGHGPLVLQLLSFTLLAGLLVQVSKVPSSISQEQSRQDAIYQNLTQLKAAVGELSEKSKLQEIYQELTQLKAAVGELPEKSKLQEIYQELTRLKAAVGELPEKSKLQEIYQELTWLKAAVGELPEKSKMQEIYQELTRLKAAVGELPEKSKQQEIYQELTRLKAAVGELPEKSKQQEIYQELTRLKAAVGELPEKSKQQEIYQELTQLKAAVERLCHPCPWEWTFFQGNCYFMSNSQRNWHDSITACKEVGAQLVVIKSAEEQNFLQLQSSRSNRFTWMGLSDLNQEGTWQWVDGSPLLPSFKQYWNRGEPNNVGEEDCAEFSGNGWNDDKCNLAKFWICKKSAASCSRDEEQFLSPAPATPNPPPA
notes: whole, on cells; also called cellular DC-SIGN; K562-DC-SIGN
For B1, the binding result (in test [1]; with ICAM-3-Fc) was “binds” in each case.

B2: DC-SIGN E347Q mutant expressed by K562 cells (receptor)
chain: B1 chain with E347Q
notes: whole, on cells
Consider B2, for which the binding result in test [2] is reported as “no binding”.

B3: DC-SIGN-Fc (Fc fusion, human, UniProt Q9NNX6 64-404, looked up, not shown: a dimerising Fc or GST)
chain: PSSISQEQSRQDAIYQNLTQLKAAVGELSEKSKLQEIYQELTQLKAAVGELPEKSKLQEIYQELTRLKAAVGELPEKSKLQEIYQELTWLKAAVGELPEKSKMQEIYQELTRLKAAVGELPEKSKQQEIYQELTRLKAAVGELPEKSKQQEIYQELTRLKAAVGELPEKSKQQEIYQELTQLKAAVERLCHPCPWEWTFFQGNCYFMSNSQRNWHDSITACKEVGAQLVVIKSAEEQNFLQLQSSRSNRFTWMGLSDLNQEGTWQWVDGSPLLPSFKQYWNRGEPNNVGEEDCAEFSGNGWNDDKCNLAKFWICKKSAASCSRDEEQFLSPAPATPNPPPA
notes: range 64-404; also called soluble DC-SIGN-Fc; DC-SIGN-Fe
Take B3: in the test with ICAM-3 from granulocytes, the binding result is listed as “no binding”.

These data come from patent US8309097 (VERENIGING VOOR CHRISTELIJK WETENSCHAPPELIJK ONDERWIJS, dated 2012).
